# According to US20190331690A1, “BIOTHIOL DETECTION COMPOSITION COMPRISING REDOX REGULATION PROTENIN” (INDUSTRY-UNIVERSITY COOPERATION FOUNDATION HANYANG …, priority 2016, published 2019):
# Tests used:
# [1] = Second order reaction rate between a biothiol and the redox-regulating protein; assay type: biochemical
# [2] = system: FAM-bound double strand (ds) DNA [SEQ ID NOs: 1 and 2]; assay: OhrR and target DNA binding by polyacrylamide gel electrophoresis; settings: dsDNA 200 nM, room temperature 30 minutes, 7% polyacrylamide gel
# Protocol: Fluorescent probe (FAM)-bound double strand (ds) DNA (200 nM) [SEQ ID NOs: 1 and 2] and OhrR at concentrations shown in FIG. 3 were mixed and reacted at room temperature for 30 minutes, and then a dsDNA band was detected using a fluorescence spectrometer (KIF-300, Korea Lab Tech, Korea) through electrophoresis (25 mA, 30 min) using a polyacrylamide gel (7%). It can be seen that the fluorescent band of dsDNA shifted upward from an OhrR concentration of about 1.6 μM (concentration about 8 fold higher than DNA concentration).
# [3] = system: biotin-binding dsDNA [SEQ ID NOs: 1 and 2]; assay: Biolayer interferometry of DNA and OhrR binding on a photosensor
# Protocol: A binding degree between DNA and a protein on the surface of a photosensor (optical fiber) was measured using an instrument for biolayer interferometry (Blitz, Fortebio, USA).
# Binding buffer, washing buffer: TBS (Tris 20 mM, NaCl 150 mM)
# DNA binding time, OhrR binding time: 2 min
# DNA concentration: 2.5 μM
# OhrR concentration: 50 μM
# CHP concentration: 100 μM
# First, biotin-binding dsDNA [SEQ ID NOs: 1 and 2] was dissolved in a TBS buffer at the above-mentioned concentration, bound to a streptavidin-coated photosensor (optical fiber) by flowing the resulting mixture for 120 seconds, and washed with a buffer, and then the OhrR protein was associated with dsDNA binding to the photosensor by additionally flowing the protein dissolved in a TBS buffer at the above-described concentration for 120 seconds (association). After the association was completed, by additionally flowing only a buffer for 120 seconds, the dissociation process of the DNA-OhrR complex was confirmed (dissociation).
# In biolayer interferometry, when a biomaterial (DNA or OhrR) is bound to the surface of a photosensor, a change in the surface refractive index of the photosensor is necessarily accompanied (the refractive index has a positive correlation with the concentration of a biomaterial), and the principle of converting the change in refractive index to a thickness is applied. […]
# DNA = DNA binding strength of OhrR
molecule,measurement,setting,value
"OhrR: redox-regulating protein, organic hydroperoxide regulator, cloned in B. subtilis strain, SEQ ID NO: 3, homodimer, 17 kD (protein, listed as Bacillus subtilis, homodimer) MENKFDHMKLENQLCFLLYASSREMTKQYKPLLDKLNITYPQYLALLLLWEHETLTVKKMGEQLYLDSGTLTPMLKRMEQQGLITRKRSEEDERSVLISLTEDGALLKEKAVDIPGTILGLSKQSGEDLKQLKSALYTLLETLHQKN",second order reaction rate between a biothiol and the redox-regulating protein,[1],about 10^3 M^−1s^−1
same,OhrR concentration from which the fluorescent band of dsDNA shifted upward,[2],about 1.6 μM
same,binding thickness (dissociation equilibrium of OhrR minus dsDNA binding equilibrium),"[3]; OhrR 50 μM, DNA 2.5 μM, without CHP and biothiol",about 4.3 nm
same,binding thickness,[3]; in the presence of both CHP and a biothiol,about 1 nm
same,Kd,DNA,≤ 1 nM
